# According to patent US20090191228:
# T1: nOVA (non-treated ovalbumin, 1 mg/ml in PBS), P01012
# T1 chain: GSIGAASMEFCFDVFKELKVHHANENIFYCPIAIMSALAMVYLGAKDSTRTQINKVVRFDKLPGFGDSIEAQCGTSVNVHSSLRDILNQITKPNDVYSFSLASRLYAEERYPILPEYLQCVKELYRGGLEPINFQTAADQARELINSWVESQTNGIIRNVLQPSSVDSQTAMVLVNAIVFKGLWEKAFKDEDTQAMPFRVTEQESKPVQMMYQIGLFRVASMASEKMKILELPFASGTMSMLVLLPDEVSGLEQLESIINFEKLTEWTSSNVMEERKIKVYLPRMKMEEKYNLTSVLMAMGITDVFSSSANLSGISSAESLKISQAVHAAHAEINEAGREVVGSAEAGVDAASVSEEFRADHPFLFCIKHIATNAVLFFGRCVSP
# T2: dOVA-1 (ovalbumin misfolded by HCl treatment, 40 min 37 C, neutralized), P01012
# T2 chain: T1 chain
# T3: dOVA-3 (ovalbumin misfolded by about 16 h at 75 C), P01012
# T3 chain: T1 chain
# T4: dOVA-2 (ovalbumin misfolded by five heat cycles 30 to 85 C), P01012
# T4 chain: T1 chain
# B1: tissue type plasminogen activator (tPA) (protein)
# chain: SYQVICRDEKTQMIYQQHQSWLRPVLRSNRVEYCWCNSGRAQCHSVPVKSCSEPRCFNGGTCQQALYFSDFVCQCPEGFAGKCCEIDTRATCYEDQGISYRGTWSTAESGAECTNWNSSALAQKPYSGRRPDAIRLGLGNHNYCRNPDRDSKPWCYVFKAGKYSSEFCSTPACSEGNSDCYFGNGSAYRGTHSLTESGASCLPWNSMILIGKVYTAQNPSAQALGLGKHNYCRNPDGDAKPWCHVLKNRRLTWEYCDVPSCSTCGLRQYSQPQFRIKGGLFADIASHPWQAAIFAKHRRSPGERFLCGGILISSCWILSAAHCFQERFPPHHLTVILGRTYRVVPGEEEQKFEVEKYIVHKEFDDDTYDNDIALLQLKSDSSRCAQESSVVRTVCLPPADLQLPDWTECELSGYGKHEALSPFYSERLKEAHVRLYPSSRCTSQHLLNRTVTDNMLCAGDTRSGGPQANLHDACQGDSGGPLVCLNDGRMTLVGIISWGLGCGQKDVPGVYTKVTNYLDWIRDNMRP
# Key:
# [1] = target: nH5 (non-treated H5 of H5N1 strain A/Vietnam/1203/04, Protein Sciences, NaCl adjusted to 171 mM)
# [2] = target: CH5-2 (nH5 of A/VN/1203/04 heat cycled at pH 2)
# [3] = target: T1, nOVA (non-treated ovalbumin, 1 mg/ml in …)
# [4] = target: T2, dOVA-1 (ovalbumin misfolded by HCl …)
# [5] = target: T3, dOVA-3 (ovalbumin misfolded by about 16 …)
# [6] = target: CH5-1 (nH5 of A/VN/1203/04 misfolded by three heat cycles 25-85 C)
# [7] = target: CH5-4 (nH5 of A/VN/1203/04 incubated with 100 mM glucose-6-phosphate for 67 h at 80 C)
# [8] = target: CH5-3 (nH5 of A/VN/1203/04 heat cycled at pH 12)
# [9] = target: T4, dOVA-2 (ovalbumin misfolded by five …)
protein,measurement,setting,value
B1,tPA mediated plasminogen activation assay,[1],nH5 (140% of standard)
same,tPA mediated plasminogen activation assay,[2],CH5-2 (150% of standard)
same,"tPA activation potency, Activation at 10 ug/mL (% of reference)",[3],48.8
same,"tPA activation potency, Activation at 25 ug/mL (% of reference)",[3],48.1
same,"tPA activation potency, Activation at 10 ug/mL (% of reference)",[4],97.4
same,"tPA activation potency, Activation at 25 ug/mL (% of reference)",[4],136
same,"tPA activation potency, Activation at 10 ug/mL (% of reference)",[5],60.9
same,"tPA activation potency, Activation at 25 ug/mL (% of reference)",[5],79
same,tPA mediated plasminogen activation assay,[6],CH5-1 (50% of standard)
same,tPA mediated plasminogen activation assay,[7],CH5-4 (37% of standard)
same,tPA mediated plasminogen activation assay,[8],CH5-3 (200% of standard)
same,"tPA activation potency (tPA-mediated plasminogen activation, chromogenic); reference dOVA-2 at 80 ug/mL, column Activation at 10 ug/mL (% of reference)",[9],100
same,"tPA activation potency (tPA-mediated plasminogen activation, chromogenic); reference dOVA-2 at 80 ug/mL, column Activation at 25 ug/mL (% of reference)",[9],100
same,"tPA activation potency, Activation at 10 ug/mL (% of reference)",[9],107
same,"tPA activation potency, Activation at 25 ug/mL (% of reference)",[9],107
same,"tPA/Plg activating potential, cross-beta ovalbumin standard at 10 ug/ml",[9],"at 10 and 50 ug/ml, tPA/plg activation is 100% and 85%, respectively"
same,"tPA/Plg activating potential, cross-beta ovalbumin standard at 30 ug/ml",[9],The activating potential of cross-beta ovalbumin standard at 30 ug/ml is set to 100%
same,"tPA/Plg activating potential, cross-beta ovalbumin standard at 50 ug/ml",[9],"at 10 and 50 ug/ml, tPA/plg activation is 100% and 85%, respectively"
